From patent US20160009800A1 (XOMA US, published 2016)

Legend:
[1] = target: T1, mouse insulin receptor complexed with human insulin (mouse; human, UniProt P15208 28-1372; P01308 25-54; P01308 90-110); assay: FACS, CHO-K1 mouse INSR cells, signal with insulin divided by signal without insulin [cont'd]
T1 construct: whole, on cells;mature; also called muINSR/hINS complex

rabbit insulin receptor [2] = target: T2, rabbit insulin receptor (rabbit, UniProt A0A5F9DAH8 25-1377); assay: FACS on monocytes of rabbit PBMC, without insulin
T2 construct: whole, on cells
Description: Cynomolgus monkey whole blood was obtained from California National Primate Research Center (Davis, Calif.) and rabbit whole blood was obtained from LifeSource Biomedical, LLC (Moffett Field, Calif.). Human PBMC were purified using Ficoll Hypaque from buffy coats obtained from the American Red Cross. Cynomolgus and Rabbit PBMC were than purified using Ficoll Hypaque gradients (Pharmacia). Purified PBMC were frozen and stored in liquid nitrogen prior to use in the assay. Human, cynomolgus and rabbit PBMC were thawed and washed with FACS Buffer (0.5% BSA and 0.1% NaN3 in PBS). Once the cells were prepared, they were used in the FACS staining assay at a final concentration of 2×10⁶ cells/ml.
After washing twice with FACS buffer, cells were stained with various markers to capture monocytes population. Human and cynomolgus cells were stained with CD45 and CD14. Rabbit cells were stained with CD11b and CD14. Antibodies were than incubated for 20 minutes and washed twice with FACS Buffer. Cells were than fixed with 2% paraformaldehyde and equal volume of FACS Buffer was added prior to cell analysis. The cells were analyzed on a FACScan™ (Becton-Dickinson, Franklin Lakes, N.J.) and the data was analyzed using both FloJo™ (Tristar, Paso Robles, Calif.) and GraphPad Prism 5 (GraphPad Software, La Jolla, Calif.).

[3] = target: T3, human insulin receptor complexed with human insulin (human, UniProt P06213 28-1382; P01308 25-54; P01308 90-110); assay: FACS, CHO-K1 human INSR cells, signal with insulin divided by signal without insulin [cont'd]
T3 construct: whole, on cells;mature; also called hINSR-hINS complex; INS/INSR complex
Protocol: (§1) Twenty five microliter aliquots of cells were plated into 96 well plates, mixed with 25 ul of antibody or PPE and incubated on ice for 1 h.
(§2) The cells were then washed once with FACS buffer and the binding of the antibody was detected by the addition of 25 ul of an appropriate fluorochrome-conjugated secondary antibody. […] After a final 15 min incubation on ice the cells were washed and the pellets resuspended in FACS buffer. The cells were analyzed on a FACSCAN™ (Becton-Dickinson, Milipitas, Calif.) and the data analyzed in both FLOWJO™ (Treestar, Ashland, Oreg.) and Microsoft Excel™.

[4] = target: T1, mouse insulin receptor complexed with …; assay: FACS, serum-starved CHO-K1 cells expressing mouse INSR, with insulin [cont'd]
[5] = target: T3, human insulin receptor complexed with …; assay: FACS, serum-starved CHO-K1 cells expressing human INSR, with insulin [cont'd]
Protocol: as §1, §2

mouse insulin receptor [6] = target: T4, mouse insulin receptor (mouse, UniProt P15208 28-1372); assay: FACS, serum-starved CHO-K1 cells expressing mouse INSR, no insulin [cont'd]
T4 construct: whole, on cells; also called muINSR; mINSR
Protocol: as §1, §2

human insulin receptor [7] = target: T5, human insulin receptor (human, UniProt P06213 28-1382); assay: FACS, serum-starved CHO-K1 cells expressing human INSR, no insulin [cont'd]
T5 construct: whole, on cells; Uncomplexed receptor on serum-starved cells (CHOK1 transfectants or IM-9); also called hINSR; INSR

[8] = target: T3, human insulin receptor complexed with …; assay: KinExA antibody depletion by hINSR8-CHOK1 cells, with 175 nM insulin
Protocol: Beads were rotated at room temperature for 6 hours then allowed to settle. Supernatant was replaced with PBS with 50 mg/mL BSA Fraction V (Sigma-Aldrich, St. Louis, Mo.) and rotated overnight at 4° C. […] On the KinExA 3000 the sample was injected at 0.25 mL/minute for 240 seconds, then rinsed for 60 seconds in running buffer (PBS with 0.05% sodium azide), then 240 seconds of the detection solution was injected, followed by a final 90 second wash at 1 mL/minute. The difference in voltage from an early initial time-point and a time point near the end of the run was measured and used to calculate affinities. The INSR concentration on the cells was estimated at 2.5×10⁵ receptors/cell. Affinity was determined using the KinExA software (Sāpidyne, Boise Id.) and EC50's were calculated by non-linear fit in Prism (GraphPad Software, La Jolla Calif.).
Samples were incubated overnight at 4° C. for 18 hours then centrifuged to pellet cells and supernatants were removed for testing on the KinExA. […] Detection solution used was R-PE-(Fab′)2 fragment goat anti-Human IgG(H+L) (Jackson Immuno Research, West Grove Pa.).

mouse insulin receptor [9] = target: T4, mouse insulin receptor; assay: cell-based or functional assay
human insulin receptor [10] = target: T5, human insulin receptor; assay: cell-based or functional assay
human insulin receptor [11] = target: T5, human insulin receptor; assay: cell-based or functional assay; remark: listed apart in the source
rabbit insulin receptor [12] = target: T2, rabbit insulin receptor; assay: FACS on monocytes of rabbit PBMC and on CHO cells expressing rabbit insulin receptor, without insulin

Binder	FACS area under log transformed data MFI ratio (+insulin/-insulin) [1]	binding result (rabbit insulin receptor [2])	FACS area under log transformed data MFI ratio (+insulin/-insulin) [3]	FACS area under log transformed data MFI [4]	FACS area under log transformed data MFI [5]	FACS area under log transformed data MFI (mouse insulin receptor [6])	FACS area under log transformed data MFI (human insulin receptor [7])	Kd [8] [nM]	fold-change in insulin EC50 (pAkt) relative to isotype control, 20 ug/ml Ab077, mouse INSR CHO-K1 cells (mouse insulin receptor [9]) [fold]	fold-change in insulin EC50 (pAkt) relative to isotype control, 10 ug/ml Ab077, human INSR CHO-K1 cells (human insulin receptor [10]) [fold]	pAKT assay, fold-decrease in insulin EC50 relative to isotype control Ab (human insulin receptor [11]) [fold]	binding result (rabbit insulin receptor [12])	fold-change in insulin EC50 (pAkt) relative to isotype control, 20 ug/ml Ab078, human INSR CHO-K1 cells (human insulin receptor [10]) [fold]
Ab077 (antibody, IgG2, V domains shown, also called XPA.015.243) VH: EVQLVESGGGVVQPGGSLRLSCAASGFTFSSYWMTWVRQAPGKGLEWVANINQDGSEKHYVDSVKGRFTISRDNAKNSLYLQMNSLRGEDTAVYYCARGRGAWAFDYWGQGTLVTVSS VL: DIQMTQSPSSLSASVGDRVTITCRASQGISSWLAWYQQKPGKAPKLLIYAASSLQSGVPSRFSGSGSGTDFTLTISSLQPEDFATYYCQQANSFPITFGQGTRLEIK	2.28	no binding	2.12	103	268	45	127	6.4	8	9			
Ab078 (antibody, IgG2, V domains shown, also called XPA.015.244) VH: QVQLVQSGGGLVQPGGSLRLSCAASGFTFSSYSMNWVRQAPGKGLEWVSSISSSSSYIYYADSVKGRFTISRDNAKNSLYLQMNSLRAEDTAVYYCARDQGGELLGFTGYFDYWGQGTLVTVSS VL: DIQLTQSPSSLSASVGDRVTITCRASQGISSALAWYQQKPGKAPKVLIYDASSLERGVPSRFSGSGTGTDFTLTISSLQPEDFASYYCHQFNSYPDTFGQGTRLEIK	17.6		66	217	704		11	0.34			3.3	no binding	3
